Patent US20200072853A1

Assays:
[1] = biological target: human proBNP(1-108), recombinant protein produced in E. coli (non-glycosylated) (human) (UniProt P16860); experiment: sandwich ELISA; capture hinge 76; proBNP(1-108) 20 pg/ml; detection mAb-peroxidase 0.5 ug/ml
[2] = biological target: human proBNP(1-108), recombinant protein produced in E. coli (non-glycosylated) (human) (UniProt P16860); experiment: sandwich ELISA; capture hinge 76; proBNP(1-108) 5,000 pg/ml; detection mAb-peroxidase 0.5 ug/ml
[3] = biological target: human BNP(1-32) (human); experiment: sandwich ELISA; capture L21016; BNP(1-32) 625 pg/ml; detection mAb 0.5 ug/ml
[4] = biological target: human BNP(1-32) (human); experiment: sandwich ELISA; capture L21016; BNP(1-32) 20 pg/ml; detection mAb 0.5 ug/ml
[5] = biological target: human BNP(1-32) (human); experiment: sandwich ELISA; capture L21016; BNP(1-32) 1,250 pg/ml; detection mAb 0.5 ug/ml
[6] = biological target: human proBNP(1-108), recombinant protein produced in E. coli (non-glycosylated) (human) (UniProt P16860); experiment: sandwich ELISA; capture hinge 76; proBNP(1-108) 39 pg/ml; detection mAb-peroxidase 0.5 ug/ml
[7] = biological target: human proBNP(1-108), recombinant protein produced in E. coli (non-glycosylated) (human) (UniProt P16860); experiment: sandwich ELISA; capture hinge 76; proBNP(1-108) 156.25 pg/ml; detection mAb-peroxidase 0.5 ug/ml
[8] = biological target: human BNP(1-32) (human); experiment: sandwich ELISA; capture L21016; BNP(1-32) 312.5 pg/ml; detection mAb 0.5 ug/ml
[9] = biological target: human proBNP(1-108), recombinant protein produced in E. coli (non-glycosylated) (human) (UniProt P16860); experiment: sandwich ELISA; capture hinge 76; proBNP(1-108) 10,000 pg/ml; detection mAb-peroxidase 0.5 ug/ml
[10] = biological target: human proBNP(1-108), recombinant protein produced in E. coli (non-glycosylated) (human) (UniProt P16860); experiment: sandwich ELISA; capture hinge 76; proBNP(1-108) 1,250 pg/ml; detection mAb-peroxidase 0.5 ug/ml
[11] = biological target: human proBNP(1-108), recombinant protein produced in E. coli (non-glycosylated) (human) (UniProt P16860); experiment: sandwich ELISA; capture hinge 76; proBNP(1-108) 625 pg/ml; detection mAb-peroxidase 0.5 ug/ml
[12] = biological target: human BNP(1-32) (human); experiment: sandwich ELISA; capture L21016; BNP(1-32) 156.25 pg/ml; detection mAb 0.5 ug/ml
[13] = biological target: human BNP(1-32) (human); experiment: sandwich ELISA; capture L21016; BNP(1-32) 78 pg/ml; detection mAb 0.5 ug/ml
[14] = biological target: human proBNP(1-108), recombinant protein produced in E. coli (non-glycosylated) (human) (UniProt P16860); experiment: sandwich ELISA; capture hinge 76; proBNP(1-108) 312.5 pg/ml; detection mAb-peroxidase 0.5 ug/ml
[15] = biological target: human BNP(1-32) (human); experiment: sandwich ELISA; capture L21016; BNP(1-32) 39 pg/ml; detection mAb 0.5 ug/ml
[16] = biological target: human proBNP(1-108), recombinant protein produced in E. coli (non-glycosylated) (human) (UniProt P16860); experiment: sandwich ELISA; capture hinge 76; proBNP(1-108) 78 pg/ml; detection mAb-peroxidase 0.5 ug/ml
[17] = biological target: human proBNP(1-108), recombinant protein produced in E. coli (non-glycosylated) (human) (UniProt P16860); experiment: sandwich ELISA; capture hinge 76; proBNP(1-108) 0 pg/ml (blank); detection mAb-peroxidase 0.5 ug/ml
[18] = biological target: human BNP(1-32) (human); experiment: sandwich ELISA; capture L21016; BNP(1-32) 2,500 pg/ml; detection mAb 0.5 ug/ml
[19] = biological target: human BNP(1-32) (human); experiment: sandwich ELISA; capture L21016; BNP(1-32) 10,000 pg/ml; detection mAb 0.5 ug/ml
[20] = biological target: human proBNP(1-108), recombinant protein produced in E. coli (non-glycosylated) (human) (UniProt P16860); experiment: sandwich ELISA; capture hinge 76; proBNP(1-108) 2,500 pg/ml; detection mAb-peroxidase 0.5 ug/ml
[21] = biological target: human BNP(1-32) (human); experiment: sandwich ELISA; capture L21016; BNP(1-32) 0 pg/ml (blank); detection mAb 0.5 ug/ml
[22] = biological target: human BNP(1-32) (human); experiment: sandwich ELISA; capture L21016; BNP(1-32) 5,000 pg/ml; detection mAb 0.5 ug/ml

Chain of human BNP(1-32) (human) (peptide, as listed by the source): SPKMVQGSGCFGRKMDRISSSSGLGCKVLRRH
Chain of human proBNP(1-108), recombinant protein produced in E. coli (non-glycosylated) (human) (P16860 27-134): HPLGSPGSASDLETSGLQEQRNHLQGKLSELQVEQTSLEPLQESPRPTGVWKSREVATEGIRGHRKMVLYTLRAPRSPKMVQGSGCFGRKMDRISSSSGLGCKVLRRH

An OD [1] of 0.052 OD, an OD [2] of 0.117 OD and an OD 490 nm [3] of 0.059 OD were found for “24C5 monoclonal antibody (HyTest, Turku, Finland)” in this work. It also gave an OD 490 nm [4] of 0.068 OD, an OD 490 nm [5] of 0.056 OD and an OD [6] of 0.056 OD. It also gave an OD [7] of 0.055 OD, an OD 490 nm [8] of 0.063 OD and an OD [9] of 0.22 OD. For the same substance, the OD [10] was 0.068 OD, the OD [11] was 0.07 OD and the OD 490 nm [12] was 0.071 OD. The OD 490 nm [13] was 0.052 OD, the OD [14] was 0.035 OD and the OD 490 nm [15] was 0.055 OD. The OD [16] was 0.056 OD, the OD [17] was 0.044 OD and the OD 490 nm [18] was 0.067 OD. The OD 490 nm [19] was 0.077 OD, the OD [20] was 0.069 OD and the OD 490 nm [21] was 0.071 OD. For the same substance, the OD 490 nm [22] was 0.068 OD.
An OD [1] of 0.028 OD, an OD [2] of 0.041 OD and an OD 490 nm [3] of 0.029 OD were found for “26E2 monoclonal antibody (HyTest, Turku, Finland)” in this work. It also gave an OD 490 nm [4] of 0.034 OD, an OD 490 nm [5] of 0.031 OD and an OD [6] of 0.028 OD. It also gave an OD [7] of 0.027 OD, an OD 490 nm [8] of 0.027 OD and an OD [9] of 0.158 OD. It also gave an OD [10] of 0.024 OD, an OD [11] of 0.024 OD and an OD 490 nm [12] of 0.032 OD. For the same substance, the OD 490 nm [13] was 0.055 OD, the OD [14] was 0.028 OD and the OD 490 nm [15] was 0.032 OD. For the same substance, the OD [16] was 0.033 OD, the OD [17] was 0.024 OD and the OD 490 nm [18] was 0.035 OD. For the same substance, the OD 490 nm [19] was 0.048 OD, the OD [20] was 0.031 OD and the OD 490 nm [21] was 0.022 OD. For the same substance, the OD 490 nm [22] was 0.041 OD.
